Experimental data as given in EP4703474A1, “ANTI-LRRC15 ANTIBODY” (priority 2023, dated 2024).

T1: human LRRC15 (full-length, on cells) (human, UniProt Q8TF66 22-581)
T1 construct: also called hLRRC15; endogenous LRRC15 of Hs294T
T1 sequence: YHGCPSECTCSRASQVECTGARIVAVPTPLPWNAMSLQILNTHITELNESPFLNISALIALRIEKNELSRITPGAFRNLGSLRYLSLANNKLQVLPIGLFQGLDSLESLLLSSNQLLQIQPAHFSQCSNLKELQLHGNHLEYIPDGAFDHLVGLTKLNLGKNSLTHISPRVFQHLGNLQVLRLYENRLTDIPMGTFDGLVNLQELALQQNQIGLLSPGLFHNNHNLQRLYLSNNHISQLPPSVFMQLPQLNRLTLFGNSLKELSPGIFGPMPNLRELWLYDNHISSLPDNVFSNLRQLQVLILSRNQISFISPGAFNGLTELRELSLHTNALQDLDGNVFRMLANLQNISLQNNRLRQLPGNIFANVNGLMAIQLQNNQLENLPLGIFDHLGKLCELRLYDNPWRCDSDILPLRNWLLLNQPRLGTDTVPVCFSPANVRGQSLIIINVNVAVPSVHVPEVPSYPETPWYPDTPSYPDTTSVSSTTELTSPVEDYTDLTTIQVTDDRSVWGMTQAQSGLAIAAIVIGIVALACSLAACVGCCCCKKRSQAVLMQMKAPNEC

T2: human LRRC15 extracellular domain expressed on HEK293α (pDisplay-hLRRC15 ECD) (human, UniProt Q8TF66 22-538)
T2 construct: also called WT; human LRRC15 wild-type
T2 sequence: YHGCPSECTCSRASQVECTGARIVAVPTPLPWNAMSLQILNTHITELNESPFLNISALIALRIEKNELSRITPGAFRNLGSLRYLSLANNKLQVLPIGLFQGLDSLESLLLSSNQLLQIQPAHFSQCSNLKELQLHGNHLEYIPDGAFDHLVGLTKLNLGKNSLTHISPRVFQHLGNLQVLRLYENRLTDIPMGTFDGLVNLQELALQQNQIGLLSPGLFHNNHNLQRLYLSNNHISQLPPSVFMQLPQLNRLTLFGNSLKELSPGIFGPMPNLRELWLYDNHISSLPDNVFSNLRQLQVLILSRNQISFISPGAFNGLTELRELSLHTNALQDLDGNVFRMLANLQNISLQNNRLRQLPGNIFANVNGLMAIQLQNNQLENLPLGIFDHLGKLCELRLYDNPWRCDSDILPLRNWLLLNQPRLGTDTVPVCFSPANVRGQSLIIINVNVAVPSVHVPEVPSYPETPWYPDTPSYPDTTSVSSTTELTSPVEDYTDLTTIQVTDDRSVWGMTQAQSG

T3: cynomolgus monkey LRRC15 extracellular domain expressed on HEK293α (pDisplay-cynoLRRC15 ECD) (cynomolgus monkey, UniProt Q8TF66 22-538 (human entry))
T3 construct: vector-derived parts not described
T3 chain: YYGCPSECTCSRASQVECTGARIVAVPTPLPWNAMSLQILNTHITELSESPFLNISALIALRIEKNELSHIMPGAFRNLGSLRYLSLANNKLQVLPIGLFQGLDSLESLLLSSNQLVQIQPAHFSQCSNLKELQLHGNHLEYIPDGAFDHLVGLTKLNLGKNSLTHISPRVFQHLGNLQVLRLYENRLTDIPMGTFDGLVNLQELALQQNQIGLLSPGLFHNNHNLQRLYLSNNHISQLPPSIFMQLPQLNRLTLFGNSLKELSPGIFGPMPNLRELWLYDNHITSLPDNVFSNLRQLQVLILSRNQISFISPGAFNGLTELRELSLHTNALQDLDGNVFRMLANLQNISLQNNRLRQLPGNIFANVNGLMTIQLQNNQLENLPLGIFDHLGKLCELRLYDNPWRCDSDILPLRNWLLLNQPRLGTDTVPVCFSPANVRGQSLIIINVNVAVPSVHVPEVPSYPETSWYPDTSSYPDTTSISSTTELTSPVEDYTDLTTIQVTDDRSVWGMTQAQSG

T4: human LRRC15-His protein (human, UniProt Q8TF66 22-538)
T4 construct: Recombinant, expressed in mammalian cells; also called human LRRC15 antigen; hLRRC15-His
T4 sequence: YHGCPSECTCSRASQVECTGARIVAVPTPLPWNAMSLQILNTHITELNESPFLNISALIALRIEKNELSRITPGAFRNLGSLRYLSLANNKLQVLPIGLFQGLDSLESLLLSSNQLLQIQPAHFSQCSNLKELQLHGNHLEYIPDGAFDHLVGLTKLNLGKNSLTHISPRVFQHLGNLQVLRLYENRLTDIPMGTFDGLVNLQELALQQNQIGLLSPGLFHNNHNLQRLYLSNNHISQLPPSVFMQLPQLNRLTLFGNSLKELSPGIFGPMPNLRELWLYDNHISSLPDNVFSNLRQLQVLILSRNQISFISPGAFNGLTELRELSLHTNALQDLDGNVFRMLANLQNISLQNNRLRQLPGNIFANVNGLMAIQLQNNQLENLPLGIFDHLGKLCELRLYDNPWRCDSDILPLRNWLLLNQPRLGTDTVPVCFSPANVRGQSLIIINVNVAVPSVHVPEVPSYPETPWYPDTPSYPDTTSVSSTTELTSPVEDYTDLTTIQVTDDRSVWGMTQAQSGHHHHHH


Key:
[1] = biological target: T1, human LRRC15 (full-length, on cells); assay: Cell-ELISA, hybridoma supernatant on HEK293α transfected with pcDNA3.1-hLRRC15
[2] = biological target: T1, human LRRC15 (full-length, on cells); assay: flow cytometry, endogenous LRRC15 on human melanoma line Hs294T
[3] = biological target: T2, human LRRC15 extracellular domain …; assay: flow cytometry, HEK293α expressing WT human LRRC15 ECD
[4] = biological target: T3, cynomolgus monkey LRRC15 extracellular …; assay: flow cytometry, transfected HEK293α, 10 µg/mL
[5] = biological target: T2, human LRRC15 extracellular domain …; assay: flow cytometry, transfected HEK293α, 10 µg/mL
human LRRC15-His protein = biological target: T4, human LRRC15-His protein; assay: SPR, Biacore T200; antibody captured by anti-human IgG (Fc), human LRRC15-His as analyte, 1:1 model

Row | Binder | binding result [1] | binding result [2] | binding result [3] | binding result [4] | binding result [5] | Kd (human LRRC15-His protein) [nM]
1 | rR024 antibody (antibody, rat IgG2b, V domains shown, Rat monoclonal antibody from hybridoma culture supernatant; rat IgG2b, kappa light chain; also called clone rR024) VH: EVQLVESNGALVQPGRSLKLSCAASGFTFRDYYMAWVRQAPSKGLEWVASIGFDESRTYYRDSVKGRFTISRDDVKSTLYLQLDSLRSEDTATYYCTRHGVSYYSGDNWFAYWGQGALVIVSS VL: DIVMTQSPSSLAVSAGETVIINCKSSQGLLYSGDQKNYLAWYQQKPGQSPKLLIYWASTRQSGVPDRFIGSGSGTDFTLTISSVQGEDLAIYYCQQYYDPPYTFGAGTKLELKR | binds | – | – | – | – | –
2 | H02L01 antibody (antibody, human IgG1, kappa, L234A L235A, V domains shown, Humanized anti-LRRC15 antibody, human IgG1 / kappa; also called hR024 (hR024 H02 + hR024 L01)) VH: EVQLVESGGGLVQPGGSLRLSCAASGFTFRDYYMAWVRQAPGKGLEWVSSIGFDESRTYYADSVKGRFTISRDDSKNTLYLQMNSLRAEDTAVYYCARHGVSYYSGDNWFAYWGQGTLVTVSS VL: DIQMTQSPSSLSASVGDRVTITCKSSQGLLYSGDQKNYLAWYQQKPGKAPKLLIYWASTRQSGVPSRFSGSGSGTDFTLTISSLQPEDFATYYCQQYYDPPYTFGQGTKVEIKR | – | binds | binds | binds | – | –
3 | H02L01-V2 antibody (antibody, human IgG1, kappa, L234A L235A, V domains shown, Humanized anti-LRRC15 antibody, human IgG1 / kappa; also called hR024 (hR024 H02-V2 + hR024 L01)) VH: EVQLVESGGGLVQPGGSLRLSCAASGFTFRDYYMAWVRQAPGKGLEWVSSIGFDESRTYYADSVKGRFTISRDDSKNTLYLQMNSLRAEDTAVYYCARHGVSRYSGDNWFAYWGQGTLVTVSS VL: DIQMTQSPSSLSASVGDRVTITCKSSQGLLYSGDQKNYLAWYQQKPGKAPKLLIYWASTRQSGVPSRFSGSGSGTDFTLTISSLQPEDFATYYCQQYYDPPYTFGQGTKVEIKR | – | binds | – | binds | binds | –
4 | H02L01-V1 antibody (antibody, human IgG1, kappa, L234A L235A, V domains shown, Humanized anti-LRRC15 antibody, human IgG1 / kappa; also called hR024 (hR024 H02-V1 + hR024 L01)) VH: EVQLVESGGGLVQPGGSLRLSCAASGFTFRDYYMAWVRQAPGKGLEWVSSIGFDESRTYYADSVKGRFTISRDDSKNTLYLQMNSLRAEDTAVYYCARHGVSKYSGDNWFAYWGQGTLVTVSS VL: DIQMTQSPSSLSASVGDRVTITCKSSQGLLYSGDQKNYLAWYQQKPGKAPKLLIYWASTRQSGVPSRFSGSGSGTDFTLTISSLQPEDFATYYCQQYYDPPYTFGQGTKVEIKR | – | – | – | binds | – | 59.9
5 | H09L03 antibody (antibody, human IgG1, kappa, L234A L235A, V domains shown, Humanized anti-LRRC15 antibody, human IgG1 / kappa; also called hR024 (hR024 H09 + hR024 L03)) VH: EVQLVESGGGLVQPGGSLRLSCAASGFTFRDYYMAWVRQAPGKGLEWVASIGFDESRTYYADSVKGRFTISRDDSKSTLYLQMNSLRAEDTAVYYCTRHGVSYYSGDNWFAYWGQGTLVTVSS VL: DIQMTQSPSSLSASVGDRVTITCKSSQGLLYSGDQKNYLAWYQQKPGKSPKLLIYWASTRQSGVPDRFSGSGSGTDFTLTISSLQPEDFATYYCQQYYDPPYTFGQGTKVEIKR | – | binds | – | binds | binds | –
